Experimental data as given in the supplement of paper PMC12764529.
± gives the half width of the 95% confidence interval.

Key:
[1] = folding stability dG unfold from chymotrypsin proteolysis; higher = more stable
In short: (§1)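 Designed mini-proteins with no cysteine and under 80 residues were kept only if AlphaFold2 dimer inter-PAE was above 15. In a PA-tagged cDNA display construct, they were digested with trypsin and chymotrypsin and then sequenced. K50 was inferred by Bayesian fitting of counts, and unfolding free energy was derived per protease or combined against a sequence-predicted unfolded-state K50 and a shared folded-state K50.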

[2] = folding stability dG unfold from trypsin proteolysis; higher = more stable
In short: as §1

[3] = folding stability dG unfold (combined trypsin and chymotrypsin); higher = more stable
In short: as §1

Sequence	folding stability dG unfold [1]	folding stability dG unfold [2]	folding stability dG unfold [3]
SAGGSAGGSAGPPIMVMVHKHDKEDGKPKIDESIPIDIPPDQQDKLKEEANERGYHVHPFSAGGSAGGSAGG [r17_18_TrROS]	0.0379 ± 0.11 kcal/mol	0.207 ± 0.054 kcal/mol	0.158 ± 0.091 kcal/mol
SAGGSAGGSAGPPNKPVYVRVRIQMPNGKKKTFWFKDVEQIEKNLKEEFGIRDIEIEPIKSAGGSAGGSAGG [r17_508_TrROS]	1.71 ± 0.026 kcal/mol	1.62 ± 0.028 kcal/mol	1.67 ± 0.046 kcal/mol
SAGGSAGGSAGPTLTLELLFRNEDGSLYAVRVRYDLDTDKVEIEVRRLPPAEPVTVTVEDSAGGSAGGSAGG [r11_657_TrROS_Hall]	4.26 ± 0.052 kcal/mol	2.8 ± 0.12 kcal/mol	3.7 ± 0.17 kcal/mol
SAGGSAGGSAGPTVASVEVLEYDPETGYLTVRIYIPDNGEWVDVKAPVGTAEEIVKAAEKSAGGSAGGSAGG [r17_111_TrMRF]	1.49 ± 0.048 kcal/mol	0.463 ± 0.077 kcal/mol	1.16 ± 0.14 kcal/mol
SAGGSAGGSAGPVKLTLEVPEEEAEELAEALREAGYEVEIERDEETKRLRVTITVDPEALSAGGSAGGSAGG [r11_1043_TrROS_Hall]	2.2 ± 0.056 kcal/mol	1.78 ± 0.095 kcal/mol	2.01 ± 0.12 kcal/mol
SAGGSAGGSAGPVKTVEVEIPGMSEEELLALLPPGVKRVEIEREEVEPGRVRLRIKVYEESAGGSAGGSAGG [r11_1002_TrROS_Hall]	1.3 ± 0.051 kcal/mol	0.307 ± 0.062 kcal/mol	0.977 ± 0.059 kcal/mol
SAGGSAGGSAGPVTITIKVPKEDEEEIEALARELAAALPPPEGAKVTVERNEDGTITITLSAGGSAGGSAGG [r17_324_TrROS_Hall]	1.6 ± 0.06 kcal/mol	1.56 ± 0.15 kcal/mol	1.62 ± 0.12 kcal/mol
SAGGSAGGSAGPVVVEVDGKLVIFNPEDGTVTVFEFDKDGKLVEEKEFTVPPEVTLVEEDSAGGSAGGSAGG [r17_385_TrROS_Hall]	1.06 ± 0.039 kcal/mol	1.42 ± 0.11 kcal/mol	1.27 ± 0.13 kcal/mol
SAGGSAGGSAGRRLVLEFDDESLAVPAAEFLERVLGLELVSIERVPDGERERVLVVLDFPSAGGSAGGSAGG [r11_232_TrMRF]	2.45 ± 0.05 kcal/mol	1.78 ± 0.036 kcal/mol	2.21 ± 0.09 kcal/mol
SAGGSAGGSAGSEIAEAIKKALEEAGVKEVKIEKVGPEPNVFRITFENGETIEITLPEDLSAGGSAGGSAGG [r11_765_TrROS_Hall]	2.19 ± 0.037 kcal/mol	2.28 ± 0.15 kcal/mol	2.21 ± 0.1 kcal/mol
SAGGSAGGSAGSGTMFDFGSASVETLEEDPNGRVLVKVTLPDSEYLLEIVKGELVKIEPRSAGGSAGGSAGG [r17_396_JUSTAS]	0.858 ± 0.059 kcal/mol	-0.274 ± 0.28 kcal/mol	0.569 ± 0.12 kcal/mol
SAGGSAGGSAGSIGFDSLEEAEKAIEEARRNNVPLTIELRLPDGSTLRIPVDLEIPEDDPSAGGSAGGSAGG [r17_462_TrMRF]	1.19 ± 0.037 kcal/mol	1.7 ± 0.056 kcal/mol	1.46 ± 0.12 kcal/mol
SAGGSAGGSAGSLELEFEFPKDTPLDKIIEELKKLIPEKDPKIEILKVEEKEGGLWIKARVSSAGGSAGGSA [r18_360_TrMRF]	3.11 ± 0.042 kcal/mol	3.55 ± 0.085 kcal/mol	3.26 ± 0.05 kcal/mol
SAGGSAGGSAGSLLTETSESVINDTKITHVLEIDPSSGALRLILETKHPDPGIVTVELLPSAGGSAGGSAGG [r17_242_JUSTAS]	0.857 ± 0.061 kcal/mol	0.943 ± 0.023 kcal/mol	0.885 ± 0.072 kcal/mol
SAGGSAGGSAGSMEPVKTEELESGEVRTVSLLPDGTIKEELIKIEGEGETVETKVVPLEESAGGSAGGSAGG [r11_699_JUSTAS]	1.68 ± 0.1 kcal/mol	0.745 ± 0.065 kcal/mol	1.48 ± 0.2 kcal/mol
SAGGSAGGSAGSMIEEAVEAAKASGDPDVTVDLETPEGRVTVTVTVDPATGTVTVTTSPESAGGSAGGSAGG [r17_475_JUSTAS]	2.21 ± 0.077 kcal/mol	1.21 ± 0.033 kcal/mol	1.86 ± 0.091 kcal/mol
SAGGSAGGSAGSMLLSLSIASVETTETTEIDPETGEKRKVTTTTITIPGTGQTITLTETVESAGGSAGGSAG [r3_424_JUSTAS]	0.532 ± 0.07 kcal/mol	1.83 ± 0.058 kcal/mol	1.28 ± 0.065 kcal/mol
SAGGSAGGSAGSMSVSVTKLPNGDYVVTTTTSETSTSTTGSTPVTTTTTTTTVTTLPSSSSAGGSAGGSAGG [r17_432_JUSTAS]	0.775 ± 0.023 kcal/mol	2.21 ± 0.048 kcal/mol	1.57 ± 0.046 kcal/mol
SAGGSAGGSAGSMSVTLSTTVEVTVEPLPDYTIVTVTTTTTFPDGSTTTTVTTTPVPPDLGSAGGSAGGSAG [r3_330_JUSTAS]	1.8 ± 0.15 kcal/mol	0.957 ± 0.24 kcal/mol	1.68 ± 0.22 kcal/mol
SAGGSAGGSAGSMTLSTSTSTTPTSLTTTTTTTTYDPTTGTTTTTSTTTTTALPAAPPSSTASAGGSAGGSA [r18_16_JUSTAS]	1.64 ± 0.03 kcal/mol	0.0685 ± 0.064 kcal/mol	1.37 ± 0.13 kcal/mol
SAGGSAGGSAGSMTPAEEKAREVEERLRREHPEFERVFVRVKEFRPETGEVTIEVEVEPRSAGGSAGGSAGG [r11_617_JUSTAS]	-0.641 ± 0.27 kcal/mol	0.292 ± 0.061 kcal/mol	-0.0464 ± 0.12 kcal/mol

Sequence	folding stability dG unfold [1]	folding stability dG unfold [2]	folding stability dG unfold [3]
SAGGSAGGSAGSMTSISVDVPVPGKNVVTVTVTLPPNTTTVTITVEPLPNGELKVTVETSSAGGSAGGSAGG [r11_657_JUSTAS]	2.5 ± 0.061 kcal/mol	2.89 ± 0.07 kcal/mol	2.78 ± 0.1 kcal/mol
SAGGSAGGSAGSMTVTLTITDPRNSATTTYTVPSSNYEEFLKANPEIEKNGWTVTVDTNGSAGGSAGGSAGG [r17_176_JUSTAS]	0.903 ± 0.15 kcal/mol	1.15 ± 0.044 kcal/mol	1.05 ± 0.13 kcal/mol
SAGGSAGGSAGSPDRPRRVEPVPVVTYKDPDLGKEFTSPEEIEKTKEELEKKGLSVEVSASAGGSAGGSAGG [r17_289_JUSTAS]	0.482 ± 0.1 kcal/mol	-0.209 ± 0.13 kcal/mol	0.289 ± 0.15 kcal/mol
SAGGSAGGSAGSPVVTTEKVKTEGNTTVYRVTEPALNTETLVTEDAGANPTIKTTTYNTPSAGGSAGGSAGG [r11_738_JUSTAS]	-0.937 ± 0.83 kcal/mol	-0.955 ± 0.21 kcal/mol	-0.747 ± 0.24 kcal/mol
SAGGSAGGSAGSTVTLELEIDGVRITVKAELTPDGELRLTITEVEVLPPPPVVHPDDPEALKSAGGSAGGSA [r18_176_TrROS_Hall]	1.1 ± 0.064 kcal/mol	1.54 ± 0.049 kcal/mol	1.33 ± 0.11 kcal/mol
SAGGSAGGSAGSTVTLTVDPDTNVATLTAIIGGKPVTATLTFIPNTGKARLPDGTWIDISSAGGSAGGSAGG [r11_395_TrMRF]	1.03 ± 0.051 kcal/mol	1.43 ± 0.034 kcal/mol	1.28 ± 0.069 kcal/mol
SAGGSAGGSAGSVTVTFISLEEGERYLVLTELRFGDYGIESRSTRIEVSDEKLEELKKAFSAGGSAGGSAGG [r11_47_TrMRF]	2.12 ± 0.036 kcal/mol	1.52 ± 0.072 kcal/mol	2 ± 0.12 kcal/mol
SAGGSAGGSAGSVTVTLSSDPDKTFTVTLPGGETVTFQPTPTNQVTVTVTSPTTPVTVTVSSAGGSAGGSAG [r3_334_JUSTAS]	0.636 ± 0.084 kcal/mol	1.96 ± 0.074 kcal/mol	1.43 ± 0.096 kcal/mol
SAGGSAGGSAGSYTVTPITLKLPDGTEVDAVLTTDPAGNVTLTLTGDSPLSTLTFPASTLSAGGSAGGSAGG [r11_327_JUSTAS]	1.6 ± 0.039 kcal/mol	0.119 ± 0.026 kcal/mol	1.18 ± 0.049 kcal/mol
SAGGSAGGSAGTAEEIAKALEEAGFKVEKLPDGTLKVTVRNPETEETVEITLTLEEIEKLSAGGSAGGSAGG [r11_994_TrROS_Hall]	2.22 ± 0.051 kcal/mol	2.38 ± 0.084 kcal/mol	2.33 ± 0.1 kcal/mol
SAGGSAGGSAGTIRIKMKDGKPMEFPLKGLPKEDLDDPEFLDWIKDWARDSGMKIDDIEISAGGSAGGSAGG [r11_467_TrROS]	1.09 ± 0.072 kcal/mol	-0.62 ± 0.22 kcal/mol	0.608 ± 0.14 kcal/mol
SAGGSAGGSAGTITTPTAEFTVTLDPNGTYTVTYQNTTTTVPVGAPFTLPGGEPLTVVPASAGGSAGGSAGG [r11_147_JUSTAS]	0.931 ± 0.11 kcal/mol	0.0786 ± 0.069 kcal/mol	0.601 ± 0.13 kcal/mol
SAGGSAGGSAGTMTAEEIAKALGAKVVEVYPDKVVIEIEVDGKKYRITINEDGEVTVEEVSAGGSAGGSAGG [r17_252_TrROS_Hall]	4.47 ± 0.15 kcal/mol	2.62 ± 0.11 kcal/mol	4.02 ± 0.21 kcal/mol
SAGGSAGGSAGVEINIFMPSWEQAKHRAKSIARELRERGLPPNAEIKIKIHPIDPEDMGPSAGGSAGGSAGG [r17_180_TrROS]	-0.576 ± 0.15 kcal/mol	-0.0827 ± 0.13 kcal/mol	-0.226 ± 0.25 kcal/mol
SAGGSAGGSAGVKSVGPIIYPNGEVFGDVKAEEETLPNGKKKLKIYATFSDGSKYEFTLDSAGGSAGGSAGG [r11_810_TrMRF]	0.728 ± 0.13 kcal/mol	-0.261 ± 0.34 kcal/mol	0.325 ± 0.26 kcal/mol
SAGGSAGGSAGVKVLKNPGDSLVTVVTETTVTKTTTDPEGNTTTTPVKVTTTTLLEVPLTSAGGSAGGSAGG [r17_103_JUSTAS]	0.215 ± 0.056 kcal/mol	0.205 ± 0.033 kcal/mol	0.279 ± 0.071 kcal/mol
SAGGSAGGSAGVPVVVRTVTGPEGGYVVVEFPNLKKVVLLPFTDGKPRPVVFDTDEVLKLVSAGGSAGGSAG [r3_426_TrMRF]	0.722 ± 0.083 kcal/mol	1.04 ± 0.04 kcal/mol	0.825 ± 0.093 kcal/mol
SAGGSAGGSAGVRDPDNGEPMPPGDWVIRHRDNEKPHHFLIPPNNAEEFAEDNGIEIHKVSAGGSAGGSAGG [r17_109_TrROS]	1.24 ± 0.14 kcal/mol	1.42 ± 0.23 kcal/mol	1.32 ± 0.35 kcal/mol
SAGGSAGGSAGVVLKEPKGGVPKTITEDPNHPGLYTTGSPDGTISTRPLEIKPEEEPVLLSAGGSAGGSAGG [r17_85_JUSTAS]	-0.542 ± 0.4 kcal/mol	-1.01 ± 0.49 kcal/mol	-0.739 ± 0.55 kcal/mol
SAGGSAGGSAGVVVKKPGTDVVYEITEEPGSYKVTITDPKTGTTKEFTVSPEVSIESLLLSAGGSAGGSAGG [r11_772_JUSTAS]	0.757 ± 0.13 kcal/mol	1.22 ± 0.092 kcal/mol	1.15 ± 0.14 kcal/mol
SAGGSAGGSAGWGWISVSITFEMEHYDEDGKPKHEHPMPMTIQIPVVRVDPKNGKLEPMPSAGGSAGGSAGG [r17_413_TrROS]	2.58 ± 0.065 kcal/mol	1.83 ± 0.095 kcal/mol	2.24 ± 0.2 kcal/mol
